Results on 49 molecules are retold here after patent publication US20170189505A1.

The chains are these.
B1: SEQ ID No 172 peptide … (peptide)
peptide: TYTTVPRVAF
B2: SEQ ID No 225 peptide … (peptide)
peptide: YYVYIMNHL
B3: SEQ ID No 228 peptide … (peptide)
peptide: KYTSWYVAL
B4: SEQ ID No 198 peptide … (peptide)
peptide: LYLDKATLI
B5: SEQ ID No 183 peptide … (peptide)
peptide: VFTSTARAF
B6: SEQ ID No 205 peptide … (peptide)
peptide: VHIPEVYLI
B7: SEQ ID No 186 peptide … (peptide)
peptide: IFPQFLYQF
B8: SEQ ID No 208 peptide … (peptide)
peptide: TYTQDFNKF
B9: SEQ ID No 193 peptide … (peptide)
peptide: RFHPTPLLL
B10: SEQ ID No 224 peptide … (peptide)
peptide: QYLENLEKL
B11: SEQ ID No 206 peptide … (peptide)
peptide: EYQENFLSF
B12: SEQ ID No 211 peptide … (peptide)
peptide: YYLEVGKTLI
B13: SEQ ID No 187 peptide … (peptide)
peptide: TYLRDQHFL
B14: SEQ ID No 223 peptide … (peptide)
peptide: KYIPYKYVI
B15: SEQ ID No 226 peptide … (peptide)
peptide: VYRDETGELF
B16: SEQ ID No 221 peptide … (peptide)
peptide: RYSTGLAGNLL
B17: SEQ ID No 214 peptide … (peptide)
peptide: LYLKLWNLI
B18: SEQ ID No 179 peptide … (peptide)
peptide: MYDSYWRQF
B19: SEQ ID No 177 peptide … (peptide)
peptide: VYPWLGALL
B20: SEQ ID No 274 peptide … (peptide)
peptide: AYLHSHALI
B21: SEQ ID No 191 peptide … (peptide)
peptide: VFKASKITF
B22: SEQ ID No 219 peptide … (peptide)
peptide: EYPLVINTL
B23: SEQ ID No 279 peptide … (peptide)
peptide: TYIESASEL
B24: SEQ ID No 180 peptide … (peptide)
peptide: IYDDSFIRPVTF
B25: SEQ ID No 185 peptide … (peptide)
peptide: IYKVGAPTI
B26: SEQ ID No 275 peptide … (peptide)
peptide: EYINQGDLHEF
B27: SEQ ID No 272 peptide … (peptide)
peptide: QYLQDAYSF
B28: SEQ ID No 184 peptide … (peptide)
peptide: VFQNFPLLF
B29: SEQ ID No 181 peptide … (peptide)
peptide: LYLDIINLF
B30: SEQ ID No 278 peptide … (peptide)
peptide: RYISDQLFTNF
B31: SEQ ID No 190 peptide … (peptide)
peptide: GFFIFNERF
B32: SEQ ID No 216 peptide … (peptide)
peptide: QYSSVFKSL
B33: SEQ ID No 273 peptide … (peptide)
peptide: TYIKPISKL
B34: SEQ ID No 271 peptide … (peptide)
peptide: LYHDIFSRL
B35: SEQ ID No 267 peptide … (peptide)
peptide: KYMVYPQTF
B36: SEQ ID No 227 peptide … (peptide)
peptide: IFLDYEAGTLSF
B37: SEQ ID No 194 peptide … (peptide)
peptide: EFGSLHLEFL
B38: SEQ ID No 217 peptide … (peptide)
peptide: FFPPTRQMGLLF
B39: SEQ ID No 192 peptide … (peptide)
peptide: SYALLTYMI
B40: SEQ ID No 282 peptide … (peptide)
peptide: KFVDSTFYL
B41: SEQ ID No 182 peptide … (peptide)
peptide: IYQLDTASI
B42: SEQ ID No 188 peptide RYFKGLVF (peptide)
peptide: RYFKGLVF
B43: SEQ ID No 276 peptide … (peptide)
peptide: VYGFQWRHF
B44: SEQ ID No 210 peptide … (peptide)
peptide: IYTMIYRNL
B45: SEQ ID No 215 peptide YFDKVVTL (peptide)
peptide: YFDKVVTL
B46: SEQ ID No 189 peptide … (peptide)
peptide: WYVNGVNYF
B47: SEQ ID No 178 peptide … (peptide)
peptide: IFIEVFSHF
B48: SEQ ID No 203 peptide … (peptide)
peptide: FYSRLLQKF
B49: SEQ ID No 280 peptide … (peptide)
peptide: RYPDNLKHLYL

The target in this assay is HLA-A*24 (human). The assay can be described thus: UV peptide exchange, anti-b2m ELISA.
For B1, the peptide exchange yield was over 75%.

Molecule B2 displayed a peptide exchange yield of 50 to 75%.

For B3, the peptide exchange yield was over 75%.

B4 gave a peptide exchange yield of 50 to 75%.

On to B5, for which the peptide exchange yield fell in the range of 50 to 75%.

Take B6: the peptide exchange yield lay in the range of 50 to 75%.

The molecule B7 yielded a peptide exchange yield of over 75%.

As to B8, the peptide exchange yield lay within 50 to 75%.

In turn, B9 showed a peptide exchange yield of over 75%.

The molecule B10 registered a peptide exchange yield of 50 to 75%.

B11: the peptide exchange yield was 50 to 75%.

With B12, the peptide exchange yield was over 75%.

In turn, B13 registered a peptide exchange yield of over 75%.

Molecule B14 had a peptide exchange yield of 50 to 75%.

As for B15, the peptide exchange yield was 50 to 75%.

On to B16, for which the peptide exchange yield lay within 50 to 75%.

Consider B17, for which the peptide exchange yield was 50 to 75%.

The molecule B18 gave a peptide exchange yield of over 75%.

In turn, B19 registered a peptide exchange yield of over 75%.

In turn, B20 displayed a peptide exchange yield of over 75%.

Consider B21, for which the peptide exchange yield lay within 50 to 75%.

Take B22: the peptide exchange yield lay within 50 to 75%.

For the molecule B23, the peptide exchange yield lay within 50 to 75%.

Turning to B24, the peptide exchange yield fell in the range of 50 to 75%.

Take B25: the peptide exchange yield was in the range of 50 to 75%.

Turning to B26, the peptide exchange yield lay in the range of 50 to 75%.

Take B27: the peptide exchange yield is over 75%.

In turn, B28 displayed a peptide exchange yield of over 75%.

Take B29: the peptide exchange yield was over 75%.

Turning to B30, the peptide exchange yield is over 75%.

Turning to B31, the peptide exchange yield lay in the range of 50 to 75%.

For the molecule B32, the peptide exchange yield was over 75%.

In turn, B33 yielded a peptide exchange yield of 50 to 75%.

Consider B34, for which the peptide exchange yield is over 75%.

Consider B35, for which the peptide exchange yield was over 75%.

B36: the peptide exchange yield was over 75%.

Molecule B37 registered a peptide exchange yield of under 20%.

The molecule B38 showed a peptide exchange yield of over 75%.

As for B39, the peptide exchange yield was over 75%.

As to B40, the peptide exchange yield was over 75%.

On to B41, for which the peptide exchange yield lay within 50 to 75%.

The molecule B42 returned a peptide exchange yield of 50 to 75%.

As for B43, the peptide exchange yield is over 75%.

On to B44, for which the peptide exchange yield was over 75%.

B45 displayed a peptide exchange yield of 20 to 49%.

On to B46, for which the peptide exchange yield fell in the range of 20 to 49%.

With B47, the peptide exchange yield was in the range of 50 to 75%.

The molecule B48 displayed a peptide exchange yield of 50 to 75%.

B49 had a peptide exchange yield of over 75%.
